This note sets out measurements from patent publication US20250320478.

What all share (assay): cell_activity
Data set [1] has as its system ZFP6:G:hD3L (synthetic construct). Conditions: triple combination with ZFP8:G:K and ZFP3:G:D3A; not tested alone.
In data set [2] the test system is ZFP3:G:D3A (synthetic construct). Conditions: triple combination with ZFP8:G:K and ZFP6:G:hD3L; not tested alone.
Data set [3] has as its system ZFP8 (Pcsk9 ZFP, KRAB/DNMT3 effector fusions) (synthetic construct). Conditions: upper end of 1.5-17 range for bi-partite ZFP8 ETRs in Hepa 1-6 Pcsk9tdTomato; tri-partite 2-8 fold; binding inferred from silencing.

Sequence of ZFP3:G:D3A (synthetic construct) (chain, as listed by the source): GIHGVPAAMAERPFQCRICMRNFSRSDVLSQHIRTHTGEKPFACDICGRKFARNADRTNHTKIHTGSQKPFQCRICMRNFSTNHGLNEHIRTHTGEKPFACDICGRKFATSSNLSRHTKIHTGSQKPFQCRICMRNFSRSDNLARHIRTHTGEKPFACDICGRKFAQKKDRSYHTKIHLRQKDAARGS
Sequence of ZFP6:G:hD3L (synthetic construct) (chain, as listed by the source): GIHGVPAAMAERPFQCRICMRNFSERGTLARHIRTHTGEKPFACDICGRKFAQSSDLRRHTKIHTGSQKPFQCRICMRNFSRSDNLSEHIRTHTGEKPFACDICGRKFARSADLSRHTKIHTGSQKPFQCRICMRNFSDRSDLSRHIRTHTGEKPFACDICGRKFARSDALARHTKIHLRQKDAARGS

“Pcsk9 promoter CpG island, ZFP6 target site”: in data set [1], the activity (fold silencing vs ZFPoff) was determined as 15.

For “Pcsk9 promoter CpG island, ZFP3 target site”, in data set [2], the activity (fold silencing vs ZFPoff) is 15.

Turning to “Pcsk9 promoter CpG island, ZFP8 target site”, the activity (fold silencing vs ZFPoff) in data set [3] was determined as 17.
